# Paper PMC10324447
# pKd: −log10 of the molar value.
# Experiments:
# VRC01 IgG1 = test: ITC
# [1] = molecular target: VRC01 IgG1 bound to its antigen (not stated | HIV-1, strain BaL); test: ITC
substance,measurement,setting,value
"human FcγRIIIa-V158, soluble extracellular domain (receptor)",pKd,VRC01 IgG1,6.82
same,pKd,[1],6.26
